Measured values from the nanobody polyreactivity screen of Harvey et al. (2022).

Assay: yeast display, Sf9 membrane polyspecificity reagent, FACS + sequencing; frameworks hold sequencing errors
How it was run: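 Synthetic nanobody libraries on Saccharomyces cerevisiae BJ5465 were galactose-induced for 36–48 hours, stained 1 hour at 4 °C with 10% biotinylated, detergent-solubilized Sf9 membrane reagent and enriched on streptavidin microbeads. FACS then separated cells into low and high (top ~1%) gates by anti-HA (expression) and streptavidin (reagent binding) fluorescence. Genes were colony-PCR amplified, MiSeq 2 × 250 sequenced and CDR-length filtered. A clone's polyreactivity label is that of its gate of origin.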

Sequence | polyreactivity (PSR sort gate)
QVQLVESGGGLVQAGGSLRLSCAASGRIFYFNAMGWYRQAPGKEREFVASINSIGDSTYYADSVKGRFTISRDNAKNTVYLHMNSLKPEDTAVYYCNADHGVINYRLDYWGQGTQVTVSS | low polyreactivity
QVQLVESGGGLVQAGGSLRLSCAASGRIFYFNAMGWYRQAPGKERELDAAISWSGGSTYYADSVKGRFTISRDNAKNTVYLQMNSLKPEDTAVYSCATDSYRQGDYYRGRVDYWGQGTQVTVSS | low polyreactivity
QVQLVESGGGLVQAGGSLRLSCAASGRIFYFYAMGWYRQAPGKERELVASISSGSSTNYADSVKGRFTISRDNAKNTVYLQMNSLKPEDTAVYYCAAQPWHGSRARSYYWGQGTQVTVSS | high polyreactivity
QVQLVESGGGLVQAGGSLRLSCAASGRIFYGNAMGWYRQAPGKERELVAVITSSGGSTYYADSVKGRFTISRDNAKNTVYLQMNSLKPEDTAVYYCAKYYRHWYTHLGYDYWGQGTQVTVSS | high polyreactivity
QVQLVESGGGLVQAGGSLRLSCAASGRIFYGNAMGWYRQAPGKEREWVAAISSGTSTNYADSVKGRFTISRDNAKNTVFLQMNSLKPEDTAVYYCADGSYSRYLYSLYFDFDYWGQGTQVTVSS | low polyreactivity
QVQLVESGGGLVQAGGSLRLSCAASGRIFYGNTMGWYRQAPGQERELVATITRSGGSTYYADSVKGRFTISRDNAKNTVYLQMNNLKPEDTAVYYCAVGYWRLFPYGYWGQGTQVTVSS | high polyreactivity
QVQLVESGGGLVQAGGSLRLSCAASGRIFYGNVMGWYRQAPGKERELVAVITSGGNTNYADSVKGRFTISRDNAKNTVYLQMNSLKPEDTAVYYCATAVVAGVWGYDYWGQGTQVTVSS | low polyreactivity
QVQLVESGGGLVQAGGSLRLSCAASGRIFYGYAKGWYRQAPGKERELVASISRRGYSTYYADSVKGRFTISRDNAKNTVYLQMNSLKPEDTAVYYCAAGYYPFNYWCQGTQVTVSS | high polyreactivity
QVQLVESGGGLVQAGGSLRLSCAASGRIFYGYAMGWYRQAPGKERELVAAISSGGITYYADSVKGRFTISRDNAKNTVYLQMNSLKPEDTAVYYCAAEPWYKFDYDYWGQGTQVTVSS | low polyreactivity
QVQLVESGGGLVQAGGSLRLSCAASGRIFYGYAMGWYRQAPGKERELVAAISWRGGRTYYADSVKGRFTISRDNAKNTVYLQMNSLKPEDTAVYYCAVRWPSARIPVKLDYWGQGTQVTVSS | high polyreactivity
QVQLVESGGGLVQAGGSLRLSCAASGRIFYGYAMGWYRQAPGKERELVAAITSGSRTNYADSVKGRFTISRDNAKNTVYLQMNSLKPEDTAVYDCHSRYGSYLYSLVHNTRYDYWGQGTQVTVSS | low polyreactivity
QVQLVESGGGLVQAGGSLRLSCAASGRIFYGYAMGWYRQAPGKEWELVAAITDSGGITYYADSVKGRFTISRDNAKKTVYLQLNSLKPEDTAVYYCTALVRDPAWLSRVGYSGDYWGQGTQVTVSS | high polyreactivity
QVQLVESGGGLVQAGGSLRLSCAASGRIFYGYDMGWYRQAPGKERELVAAITRGVSTYYADSVKGRFTISRDNAKNTVYLQMNSLKPEDTAVYYCAADLSPYVNYWWEYYYWGQGTQVTVSS | low polyreactivity
QVQLVESGGGLVQAGGSLRLSCAASGRIFYGYTMGWYRQAPGKERELVAAITWSGGSTHYADSVKGRFTISRDNAKNTVYLQMNSLKPEDTAVYYCNARRRSVYRGLYDYWGQGTQVTVSS | high polyreactivity
QVQLVESGGGLVQAGGSLRLSCAASGRIFYGYTMVWYRQAPGKERELVAAISWSGGSTSYADSVKGRFTISRDNAKNTVYLQMKSMKPEDTAVYYCAVRYPGYRQYWGYTYDYWGQGTQVTVSS | high polyreactivity
QVQLVESGGGLVQAGGSLRLSCAASGRIFYHYAMGWYRQAPGKERELVAVIRSTGSTNYADSVKGRFTISRDNAKNTVYLQMNSLKPEDTAVYYCAVRRATYSYWYFNGGYWGQGTQVTVSS | high polyreactivity
QVQLVESGGGLVQAGGSLRLSCAASGRIFYIIAMVWYRQAPGKEWELVASITGSGGRTYYADSVKGRFTISRDNAKNTVYLQMNSLKPEDTAVYYCNADLYVGYLYYLYDYWGQGTQVTVSS | low polyreactivity
